Legend:
[1] = biological target: HaloTag-AtCRY2(D387A) (Arabidopsis thaliana); assay: photon counting histogram (PCH) analysis (fluorescence fluctuation spectroscopy); light state: the same living HEK293T cells measured at once after 5 min of blue light (about 6 mW/cm^2 at the sample plane, 450-490 nm), one 30 s measurement a cell; HaloTag-JF646 fusions; brightness relative to the monomeric standard, corrected for 70% labelling; oligomer percent from a monomer-dimer (VfAuLOV) or monomer-tetramer (AtCRY2) model
[2] = biological target: HaloTag-AtCRY2(D387A) (Arabidopsis thaliana); assay: photon counting histogram (PCH) analysis (fluorescence fluctuation spectroscopy); dark state; HaloTag fusions labelled with 200 nM JF646 in living HEK293T cells, UBC promoter, protomer about 50-1,700 nM; single-point measurement of 30 s, 20 kHz binning, 15 ns dead time, ambient temperature (22-23°C); brightness relative to the monomeric HaloTag standard and corrected for 70% labelling; population average; oligomer percent from a monomer-dimer (VfAuLOV) or monomer-tetramer (AtCRY2) model
[3] = biological target: HaloTag-AtCRY2: photolyase homology region of cryptochrome 2 from Arabidopsis thaliana fused to HaloTag (Arabidopsis thaliana); assay: photon counting histogram (PCH) analysis (fluorescence fluctuation spectroscopy); dissociation kinetics in living HEK293T cells: relative brightness measured at times after a 5-min exposure to blue light was turned off, each measurement 30 s; averaged curves fitted with a single-exponential decay; half-life = ln2 x lifetime
[4] = biological target: HaloTag-AtCRY2: photolyase homology region of cryptochrome 2 from Arabidopsis thaliana fused to HaloTag (Arabidopsis thaliana); assay: photon counting histogram (PCH) analysis (fluorescence fluctuation spectroscopy); light state: the same living HEK293T cells measured at once after 5 min of blue light (about 6 mW/cm^2 at the sample plane, 450-490 nm), one 30 s measurement a cell; HaloTag-JF646 fusions; brightness relative to the monomeric standard, corrected for 70% labelling; oligomer percent from a monomer-dimer (VfAuLOV) or monomer-tetramer (AtCRY2) model
[5] = biological target: HaloTag-AtCRY2: photolyase homology region of cryptochrome 2 from Arabidopsis thaliana fused to HaloTag (Arabidopsis thaliana); assay: photon counting histogram (PCH) analysis (fluorescence fluctuation spectroscopy); dark state; HaloTag fusions labelled with 200 nM JF646 in living HEK293T cells, UBC promoter, protomer about 50-1,700 nM; single-point measurement of 30 s, 20 kHz binning, 15 ns dead time, ambient temperature (22-23°C); brightness relative to the monomeric HaloTag standard and corrected for 70% labelling; population average; oligomer percent from a monomer-dimer (VfAuLOV) or monomer-tetramer (AtCRY2) model
[6] = biological target: HaloTag-AtCRY2(W374A) (Arabidopsis thaliana); assay: photon counting histogram (PCH) analysis (fluorescence fluctuation spectroscopy); light state: the same living HEK293T cells measured at once after 5 min of blue light (about 6 mW/cm^2 at the sample plane, 450-490 nm), one 30 s measurement a cell; HaloTag-JF646 fusions; brightness relative to the monomeric standard, corrected for 70% labelling; oligomer percent from a monomer-dimer (VfAuLOV) or monomer-tetramer (AtCRY2) model
[7] = biological target: HaloTag-AtCRY2(W374A) (Arabidopsis thaliana); assay: photon counting histogram (PCH) analysis (fluorescence fluctuation spectroscopy); dark state; HaloTag fusions labelled with 200 nM JF646 in living HEK293T cells, UBC promoter, protomer about 50-1,700 nM; single-point measurement of 30 s, 20 kHz binning, 15 ns dead time, ambient temperature (22-23°C); brightness relative to the monomeric HaloTag standard and corrected for 70% labelling; population average; oligomer percent from a monomer-dimer (VfAuLOV) or monomer-tetramer (AtCRY2) model
[8] = biological target: HaloTag-HsCRY2: human CRY2 photolyase homology region fused to HaloTag (human); assay: photon counting histogram (PCH) analysis (fluorescence fluctuation spectroscopy); light state: the same living HEK293T cells measured at once after 5 min of blue light (about 6 mW/cm^2 at the sample plane, 450-490 nm), one 30 s measurement a cell; HaloTag-JF646 fusions; brightness relative to the monomeric standard, corrected for 70% labelling; oligomer percent from a monomer-dimer (VfAuLOV) or monomer-tetramer (AtCRY2) model
[9] = biological target: HaloTag-HsCRY2: human CRY2 photolyase homology region fused to HaloTag (human); assay: photon counting histogram (PCH) analysis (fluorescence fluctuation spectroscopy); dark state; HaloTag fusions labelled with 200 nM JF646 in living HEK293T cells, UBC promoter, protomer about 50-1,700 nM; single-point measurement of 30 s, 20 kHz binning, 15 ns dead time, ambient temperature (22-23°C); brightness relative to the monomeric HaloTag standard and corrected for 70% labelling; population average; oligomer percent from a monomer-dimer (VfAuLOV) or monomer-tetramer (AtCRY2) model
[10] = biological target: HaloTag-AtCRY2(R439L) (Arabidopsis thaliana); assay: photon counting histogram (PCH) analysis (fluorescence fluctuation spectroscopy); light state: the same living HEK293T cells measured at once after 5 min of blue light (about 6 mW/cm^2 at the sample plane, 450-490 nm), one 30 s measurement a cell; HaloTag-JF646 fusions; brightness relative to the monomeric standard, corrected for 70% labelling; oligomer percent from a monomer-dimer (VfAuLOV) or monomer-tetramer (AtCRY2) model
[11] = biological target: HaloTag-AtCRY2(R439L) (Arabidopsis thaliana); assay: photon counting histogram (PCH) analysis (fluorescence fluctuation spectroscopy); dark state; HaloTag fusions labelled with 200 nM JF646 in living HEK293T cells, UBC promoter, protomer about 50-1,700 nM; single-point measurement of 30 s, 20 kHz binning, 15 ns dead time, ambient temperature (22-23°C); brightness relative to the monomeric HaloTag standard and corrected for 70% labelling; population average; oligomer percent from a monomer-dimer (VfAuLOV) or monomer-tetramer (AtCRY2) model
[12] = biological target: HaloTag-VfAuLOV: light-oxygen-voltage (LOV) domain of Vaucheria frigida Aurochrome1 fused to HaloTag (Vaucheria frigida); assay: photon counting histogram (PCH) analysis (fluorescence fluctuation spectroscopy); dissociation kinetics in living HEK293T cells: relative brightness measured at times after a 5-min exposure to blue light was turned off, each measurement 30 s; averaged curves fitted with a single-exponential decay; half-life = ln2 x lifetime
[13] = biological target: HaloTag-VfAuLOV: light-oxygen-voltage (LOV) domain of Vaucheria frigida Aurochrome1 fused to HaloTag (Vaucheria frigida); assay: photon counting histogram (PCH) analysis (fluorescence fluctuation spectroscopy); light state: the same living HEK293T cells measured at once after 5 min of blue light (about 6 mW/cm^2 at the sample plane, 450-490 nm), one 30 s measurement a cell; HaloTag-JF646 fusions; brightness relative to the monomeric standard, corrected for 70% labelling; oligomer percent from a monomer-dimer (VfAuLOV) or monomer-tetramer (AtCRY2) model
[14] = biological target: HaloTag-VfAuLOV: light-oxygen-voltage (LOV) domain of Vaucheria frigida Aurochrome1 fused to HaloTag (Vaucheria frigida); assay: photon counting histogram (PCH) analysis (fluorescence fluctuation spectroscopy); dark state; HaloTag fusions labelled with 200 nM JF646 in living HEK293T cells, UBC promoter, protomer about 50-1,700 nM; single-point measurement of 30 s, 20 kHz binning, 15 ns dead time, ambient temperature (22-23°C); brightness relative to the monomeric HaloTag standard and corrected for 70% labelling; population average; oligomer percent from a monomer-dimer (VfAuLOV) or monomer-tetramer (AtCRY2) model
[15] = biological target: HaloTag-bZip-VfAuLOV: VfAuLOV with the basic residues and leucine zipper domain of Vaucheria frigida Aureochrome1, fused to HaloTag (Vaucheria frigida); assay: photon counting histogram (PCH) analysis (fluorescence fluctuation spectroscopy); dissociation kinetics in living HEK293T cells: relative brightness measured at times after a 5-min exposure to blue light was turned off, each measurement 30 s; averaged curves fitted with a single-exponential decay; half-life = ln2 x lifetime
[16] = biological target: HaloTag-bZip-VfAuLOV: VfAuLOV with the basic residues and leucine zipper domain of Vaucheria frigida Aureochrome1, fused to HaloTag (Vaucheria frigida); assay: photon counting histogram (PCH) analysis (fluorescence fluctuation spectroscopy); light state: the same living HEK293T cells measured at once after 5 min of blue light (about 6 mW/cm^2 at the sample plane, 450-490 nm), one 30 s measurement a cell; HaloTag-JF646 fusions; brightness relative to the monomeric standard, corrected for 70% labelling; oligomer percent from a monomer-dimer (VfAuLOV) or monomer-tetramer (AtCRY2) model
[17] = biological target: HaloTag-bZip-VfAuLOV: VfAuLOV with the basic residues and leucine zipper domain of Vaucheria frigida Aureochrome1, fused to HaloTag (Vaucheria frigida); assay: photon counting histogram (PCH) analysis (fluorescence fluctuation spectroscopy); dark state; HaloTag fusions labelled with 200 nM JF646 in living HEK293T cells, UBC promoter, protomer about 50-1,700 nM; single-point measurement of 30 s, 20 kHz binning, 15 ns dead time, ambient temperature (22-23°C); brightness relative to the monomeric HaloTag standard and corrected for 70% labelling; population average; oligomer percent from a monomer-dimer (VfAuLOV) or monomer-tetramer (AtCRY2) model

HaloTag-AtCRY2(D387A) (domain or fragment)
oligomer percentage (tetramer fraction, monomer-tetramer model) [1]: < 1% | relative brightness (corrected; monomer = 1, tetramer = 4) [1]: 1.1 | oligomer percentage (tetramer fraction, monomer-tetramer model) [2]: < 1% | relative brightness (corrected; monomer = 1, tetramer = 4) [2]: 1.1

HaloTag-AtCRY2: photolyase homology region of cryptochrome 2 from Arabidopsis thaliana fused to HaloTag (domain or fragment)
dissociation half-life [3]: 4.29 min | oligomer percentage (tetramer fraction, monomer-tetramer model) [4]: 27% | relative brightness (corrected; monomer = 1, tetramer = 4) [4]: 2.8 | stoichiometry N [4]: 4 | oligomer percentage (tetramer fraction, monomer-tetramer model) [5]: < 1% | oligomer percentage (tetramer fraction, monomer-tetramer model; only data above 500 nM) [5]: 1.8% | relative brightness (corrected; monomer = 1, tetramer = 4) [5]: 1.1 | relative brightness (corrected; only data above 500 nM) [5]: 1.2

HaloTag-AtCRY2(W374A) (domain or fragment)
oligomer percentage (tetramer fraction, monomer-tetramer model) [6]: 20% | relative brightness (corrected; monomer = 1, tetramer = 4) [6]: 2.5 | oligomer percentage (tetramer fraction, monomer-tetramer model) [7]: 5% | relative brightness (corrected; monomer = 1, tetramer = 4) [7]: 1.5

HaloTag-HsCRY2: human CRY2 photolyase homology region fused to HaloTag (domain or fragment)
relative brightness (corrected; monomer = 1) [8]: 1.3 | relative brightness (corrected; monomer = 1) [9]: 1.2

HaloTag-AtCRY2(R439L) (domain or fragment)
oligomer percentage (tetramer fraction, monomer-tetramer model) [10]: < 1% | relative brightness (corrected; monomer = 1, tetramer = 4) [10]: 1.1 | oligomer percentage (tetramer fraction, monomer-tetramer model) [11]: < 1% | relative brightness (corrected; monomer = 1, tetramer = 4) [11]: 1.1

HaloTag-VfAuLOV: light-oxygen-voltage (LOV) domain of Vaucheria frigida Aurochrome1 fused to HaloTag (domain or fragment)
dissociation half-life [12]: 8.73 min | oligomer percentage (dimer fraction, monomer-dimer model) [13]: 100% | relative brightness (corrected; monomer = 1, dimer = 2) [13]: 2 | stoichiometry N [13]: 2 | oligomer percentage (dimer fraction, monomer-dimer model) [14]: 18% | relative brightness (corrected; monomer = 1, dimer = 2) [14]: 1.3

HaloTag-bZip-VfAuLOV: VfAuLOV with the basic residues and leucine zipper domain of Vaucheria frigida Aureochrome1, fused to HaloTag (domain or fragment)
dissociation half-life [15]: 6.89 min | oligomer percentage (dimer fraction, monomer-dimer model) [16]: 67% | relative brightness (corrected; monomer = 1, dimer = 2) [16]: 1.8 | stoichiometry N [16]: 2 | oligomer percentage (dimer fraction, monomer-dimer model) [17]: 33% | relative brightness (corrected; monomer = 1, dimer = 2) [17]: 1.5

Source: paper PMC12661439
